The values that follow come from patent US20060073576A1.

Where only a bound is given, the exact number is not on record here.

In the experiment the target is gp120 (strain not stated). As to the kind of experiment: competitive ELISA.

In turn, “CD4M8 (double mutant of CD4M3: Gln20Ala, Thr25Ala) (designed binder)” registered a fold increase in binding affinity over CD4M3 greater than 10 fold.
